Assay results reported in patent publication US20250376490 (POSTECH RESEARCH AND BUSINESS DEVELOPMENT FOUNDATION, published 2025).

Experiments:
Bovine serum albumin = Bovine serum albumin (Bos taurus, UniProt P02769 P02769:25-607); test: flow; details: tags: Sigma-Aldrich; bead-immobilised
[1] = target: SARS-CoV-2 spike RBD wild type (SARS-CoV-2, UniProt P0DTC2 SEQ:1-219); test: flow

Chain of Bovine serum albumin (P02769 25-607, one chain of several): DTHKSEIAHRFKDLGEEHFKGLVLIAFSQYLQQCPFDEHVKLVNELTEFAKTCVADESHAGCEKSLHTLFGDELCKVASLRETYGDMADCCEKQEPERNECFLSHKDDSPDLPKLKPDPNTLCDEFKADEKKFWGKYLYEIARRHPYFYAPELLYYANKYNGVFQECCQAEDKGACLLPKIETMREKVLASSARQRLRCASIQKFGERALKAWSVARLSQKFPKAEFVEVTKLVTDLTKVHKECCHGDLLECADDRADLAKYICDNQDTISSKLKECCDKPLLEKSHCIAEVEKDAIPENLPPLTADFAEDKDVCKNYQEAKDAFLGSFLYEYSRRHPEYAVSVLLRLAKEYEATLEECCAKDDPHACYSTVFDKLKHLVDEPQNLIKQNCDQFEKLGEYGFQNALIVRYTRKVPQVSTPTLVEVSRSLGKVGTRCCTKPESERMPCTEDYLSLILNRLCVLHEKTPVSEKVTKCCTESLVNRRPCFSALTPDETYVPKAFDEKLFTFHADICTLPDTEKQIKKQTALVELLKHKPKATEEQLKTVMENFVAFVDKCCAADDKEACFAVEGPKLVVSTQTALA

B1: R7-02 hybrid (LGKGDFR peptide-DNA) (ssDNA)
DNA: GGAAGAGATGGCGACACGCAATCGTGGGTTGGGGATATAATGGTAAGCTGATCCTGATGG
modifications: 5'-hexynyl clicked to C-terminal azide-lysine tagged LGKGDFR peptide
binding result (Bovine serum albumin): no binding

B2: CoV2-RBD-1C (printed as CoV2-RBD-QC in Table 1) (ssDNA)
DNA: CAGCACCGACCTTGTGCTTTGGGAGTGCTGGTCCAAGGGCGTTAATGGACA
binding result [1]: binds

CGCAGCACCCAAGAACAAGGACTGCTTAGGATTGCGATAGGTTCGG (ssDNA) [CoV2-6C3]
binding result [1]: binds

TCGAGTGGCTTGTTTGTAATGTAGGGTTCCGGTCGTGGGT (ssDNA) [Aptamer-1 core]
binding result [1]: binds
